Measurements from patent US20150239980A1 (NEOTOPE BOSCIENCES, published 2015).

Key:
[1] = biological target: T1, recombinant human laminin 511 (Biolamina) (human, UniProt O15230 36-3695; P07942 22-1786; P11047 34-1609); assay: flow cytometry, human MCAM CHO cells, pan-laminin antibody
T1 construct: negative control; also called laminin 10 (α5β1γ1)

[2] = biological target: T2, recombinant human IgG1 Fc (R&D systems) (human, UniProt P01857-1 100-330 = IgG part); assay: SPR, Biacore T200
T2 construct: domain: Fc; negative control surface; also called hIgG1-Fc

| binding result [1] | binding result [2] | Binder |
| --- | --- | --- |
| no binding (tested: 10 µg/ml) |  | human MCAM (melanoma cell adhesion molecule) expressed on transfected CHO cells (receptor, also called hMCAM; CD146) VPGEAEQPAPELVEVEVGSTALLKCGLSQSQGNLSHVDWFSVHKEKRTLIFRVRQGQGQSEPGEYEQRLSLQDRGATLALTQVTPQDERIFLCQGKRPRSQEYRIQLRVYKAPEEPNIQVNPLGIPVNSKEPEEVATCVGRNGYPIPQVIWYKNGRPLKEEKNRVHIQSSQTVESSGLYTLQSILKAQLVKEDKDAQFYCELNYRLPSGNHMKESREVTVPVFYPTEKVWLEVEPVGMLKEGDRVEIRCLADGNPPPHFSISKGNPSTREAEEETTNDNGVLVLEPARKEHSGRYECQAWNLDTMISLLSEPQELLVNYVSDVRVSPAAPERQEGSSLTLTCEAESSQDLEFQWLREETDQVLERGPVLQLHDLKREAGGGYRCVASVPSIPGLNRTQLVKLAIFGPPWMAFKERKVWVKENMVLNLSCEASGHPRPTISWNVNGTASEGDQDPQRVLSTLNVLVTPELLETGVECTASNDLGKNTSILFLELVNLTTLTPDSNTTTGLSTSTASPHTRANSTSTERKLPEPESRGVVIVAVIVCILVLAVLGAVLYFLYKKGKLPCRRSGKQEITLPPSRKTELVVEVKSDKLPEEMGLLQGSSGDKRAPGDQGEKYIDLRH |
|  | no binding (tested: 5-175 nM) | Recombinant human laminin-α4 (R&D systems) (ligand, UniProt Q16363-2 826-1816, looked up, also called laminin α-4 chain) QVSMMFDGQSAVEVHSRTSMDDLKAFTSLSLYMKPPVKRPELTETADQFILYLGSKNAKKEYMGLAIKNDNLVYVYNLGTKDVEIPLDSKPVSSWPAYFSIVKIERVGKHGKVFLTVPSLSSTAEEKFIKKGEFSGDDSLLDLDPEDTVFYVGGVPSNFKLPTSLNLPGFVGCLELATLNNDVISLYNFKHIYNMDPSTSVPCARDKLAFTQSRAASYFFDGSGYAVVRDITRRGKFGQVTRFDIEVRTPADNGLILLMVNGSMFFRLEMRNGYLHVFYDFGFSGGPVHLEDTLKKAQINDAKYHEISIIYHNDKKMILVVDRRHVKSMDNEKMKIPFTDIYIGGAPPEILQSRALRAHLPLDINFRGCMKGFQFQKKDFNLLEQTETLGVGYGCPEDSLISRRAYFNGQSFIASIQKISFFDGFEGGFNFRTLQPNGLLFYYASGSDVFSISLDNGTVIMDVKGIKVQSVDKQYNDGLSHFVISSVSPTRYELIVDKSRVGSKNPTKGKIEQTQASEKKFYFGGSPISAQYANFTGCISNAYFTRVDRDVEVEDFQRYTEKVHTSLYECPIESSPLFLLHKKGKNLSKPKASQNKKGGKSKDAPSWDPVALKLPERNTPRNSHCHLSNSPRAIEHAYQYGGTANSRQEFEHLKGDFGAKSQFSIRLRTRSSHGMIFYVSDQEENDFMTLFLAHGRLVYMFNVGHKKLKIRSQEKYNDGLWHDVIFIRERSSGRLVIDGLRVLEESLPPTEATWKIKGPIYLGGVAPGKAVKNVQINSIYSFSGCLSNLQLNGASITSASQTFSVTPCFEGPMETGTYFSTEGGYVVLDESFNIGLKFEIAFEVRPRSSSGTLVHGHSVNGEYLNVHMKNGQVIVKVNNGIRDFSTSVTPKQSLCDGRWHRITVIRDSNVVQLDVDSEVNHVVGPLNPKPIDHREPVFVGGVPESLLTPRLAPSKPFTGCIRHFVIDGHPVSFSKAALVSGAVSINSCPAA |
